Results on seven molecules are retold here after patent publication US20220073608A1 (JIANGSU HUAIYU PHARMACEUTICAL, published 2022).

Assay [1] deals with T1, human SEMA4D, full length, on CHO-K1 cells (CHO-K1 hSEMA4D) (human, UniProt Q92854 22-862).
T1 construct: whole, on cells; also called human SEMA4D recombinant cells
T1 sequence (looked up): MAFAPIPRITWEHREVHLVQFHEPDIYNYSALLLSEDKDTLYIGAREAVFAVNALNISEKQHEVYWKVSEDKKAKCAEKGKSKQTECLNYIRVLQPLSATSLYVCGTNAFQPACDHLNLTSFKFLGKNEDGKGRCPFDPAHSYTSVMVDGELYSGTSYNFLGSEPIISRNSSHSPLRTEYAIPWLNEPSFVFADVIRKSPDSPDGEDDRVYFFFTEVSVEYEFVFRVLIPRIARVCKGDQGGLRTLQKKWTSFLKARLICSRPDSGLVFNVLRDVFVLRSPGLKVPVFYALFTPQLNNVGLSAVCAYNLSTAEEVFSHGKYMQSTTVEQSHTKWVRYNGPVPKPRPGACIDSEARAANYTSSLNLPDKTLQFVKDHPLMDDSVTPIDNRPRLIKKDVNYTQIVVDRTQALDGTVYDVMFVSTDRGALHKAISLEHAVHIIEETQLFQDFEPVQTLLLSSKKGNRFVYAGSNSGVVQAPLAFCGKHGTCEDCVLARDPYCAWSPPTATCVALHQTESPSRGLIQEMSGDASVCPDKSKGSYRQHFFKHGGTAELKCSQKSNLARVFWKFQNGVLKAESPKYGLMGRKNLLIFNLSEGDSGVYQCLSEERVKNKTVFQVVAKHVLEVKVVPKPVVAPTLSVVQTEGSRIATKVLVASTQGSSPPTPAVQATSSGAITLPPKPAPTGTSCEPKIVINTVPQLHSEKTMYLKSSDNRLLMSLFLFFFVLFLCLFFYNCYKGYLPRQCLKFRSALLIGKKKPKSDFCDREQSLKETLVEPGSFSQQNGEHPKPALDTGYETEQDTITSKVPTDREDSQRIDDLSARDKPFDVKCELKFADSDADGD
Nature of the assay: FACS, CHO-K1 hSEMA4D cells; Ab 0.0213 nM. As to the method: (§1) The medium was aspirated, the cells were washed once with PBS buffer (purchased from Invitrogen), and then treated with cell dissociation fluid (TrypLE™ Express Enzyme, purchased from Life technology), and the cells were collected. After the cells counted, the cells were washed once with PBS phosphate buffer, and diluted to 3×10⁶ cells per milliliter, and added to the 96-well FACS reaction plate as 100 μL per well. 2% (w/w) fetal calf serum was added to PBS phosphate buffer as FACS buffer, with which the cells were washed once by centrifugation at 2000 rpm 4° C. 100 μL of diluted and purified leading antibodies was added to each well and the plate was incubated for 1 hour on ice. […] Cells were washed 2 times by centrifugation with FACS buffer. The cells were suspended with 200 μL of FACS buffer, and FACS (FACS Verse, purchased from BD) was used to detect and analyze the results.
Background: A flow cytometer gives signals particle by particle.

Assay [2] deals with T2, hSEMA4D ECD-His (His-tagged human SEMA4D protein extracellular domain, Met22-Arg734) (human, UniProt Q92854 22-734).
T2 construct: Expressed in CHO-S cells, purified on Ni column; also called protein immunogen; immunogen A; not shown: His tag of the pCP vector
T2 sequence: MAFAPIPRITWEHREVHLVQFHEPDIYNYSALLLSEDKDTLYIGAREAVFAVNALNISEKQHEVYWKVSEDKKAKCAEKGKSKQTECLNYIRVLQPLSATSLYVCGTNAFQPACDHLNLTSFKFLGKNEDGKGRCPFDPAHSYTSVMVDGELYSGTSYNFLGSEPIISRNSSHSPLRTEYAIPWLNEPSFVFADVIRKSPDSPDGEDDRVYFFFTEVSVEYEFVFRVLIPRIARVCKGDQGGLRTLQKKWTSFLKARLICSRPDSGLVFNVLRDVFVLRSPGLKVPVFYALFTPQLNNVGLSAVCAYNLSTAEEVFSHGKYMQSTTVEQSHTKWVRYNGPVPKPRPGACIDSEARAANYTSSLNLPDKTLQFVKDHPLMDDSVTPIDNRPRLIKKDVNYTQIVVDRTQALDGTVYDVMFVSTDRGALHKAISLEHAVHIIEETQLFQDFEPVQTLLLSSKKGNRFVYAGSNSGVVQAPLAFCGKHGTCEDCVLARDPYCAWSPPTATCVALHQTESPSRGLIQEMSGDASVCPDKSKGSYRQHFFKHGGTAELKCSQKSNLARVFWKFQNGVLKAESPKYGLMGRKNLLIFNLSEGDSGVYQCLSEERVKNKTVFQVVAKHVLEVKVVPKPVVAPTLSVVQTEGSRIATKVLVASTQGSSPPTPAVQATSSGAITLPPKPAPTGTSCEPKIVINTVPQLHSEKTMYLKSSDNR
Nature of the assay: ELISA, coated hSEMA4D ECD-His; Ab 0.00427 nM. As to the method: (§2) First, hSEMA4D ECD-His was diluted with PBS to a final concentration of 1.0 μg/mL, and then was added to a 96-well ELISA plate, 100 μL per well, sealed with plastic film and incubated overnight at 4° C. On the next day, the plate was washed with a plate washing solution, that is, PBS buffer containing 0.05% (v/v) Tween20, for 4 times, and added with blocking solution, that is, PBS buffer containing 0.05% (v/v) Tween20 and 2% (w/w) BSA, blocked at 37° C. for 1 hour. The blocking solution was poured out and the plate was washed 4 times with the plate washing solution. 100 μL of the purified leading antibodies obtained in Examples 1 and 2 was added to each well. After incubation at 37° C. for 1 hour, the plate was washed 4 times with a plate washing solution. 100 μL of horseradish peroxidase (HRP) labeled secondary antibody (purchased from Sigma) was added at a dilution of 1:10000 to each well, and the plate was incubated at 37° C. for 1 hour, and washed 4 times with a plate washing solution. 100 μL TMB substrate was added to each well, and the plate was incubated at room temperature for 5 minutes, and added with 100 μL stop solution (1.0N HCl) to each well. A microplate reader (SpectraMax M5e, purchased from Molecular Device) was used to read the A450 nm value. […] Wherein, the data in the table was the OD450 nm value.
(In general: In an ELISA, binding on a coated surface is turned into a signal by an enzyme label.)

Assay [3] addresses T1, human SEMA4D, full length, on CHO-K1 …. Nature of the assay: FACS, CHO-K1 hSEMA4D cells; Ab 0.00427 nM. As to the method:
as §1

Assay [4] concerns the target T2, hSEMA4D ECD-His (His-tagged human …). Nature of the assay: ELISA, coated hSEMA4D ECD-His; Ab 0.0533 nM. The protocol:
as §2

B1: 42B7G2 (antibody, V domains shown)
VH: QVQLQQSGAELARPGASVKLSCKASGYTFTDYGISWVKQRTGQGLEWIGEIYLRNDNSYYNEKFKGKATLTADKSSNTAYMELRSLTSEDSAVYFCARWGDHGNNYEDAMDYWGQGTSVTVSS
VL: DIVLTQSPASLAMSLGKRATISCRASESVSIIGSNLIHWYQQKPGQPPKLLIYHASNLETGVPARFSGSGSRTDFTLTIDPVEEDDVAIYYCLQSRKVPYTFGGGTKLEIK
notes: Mouse monoclonal antibody purified from hybridoma supernatant on protein A
Consider B1, for which the MFI is 173 in assay [1] and 68.9 in assay [3]. Further, the OD450 nm in assay [2] came to 0.0851; in assay [4] it was 0.696.

B2: 37F11F9 (antibody, V domains shown)
VH: EVQLQQSGPVLVKPGASVKMSCKASGYTFTDYYMNWVKQSHGKSLEWIGLINPYSGGSTFNQKFKAKATLTVDKSSSSAYMDLNSLTSEDSAVYYCARVGDGYYGVTHGMDYWGQGTSVTVSS
VL: DIVMTPSQKFMSTTVGDRVSITCKASQNVGTAVAWYQQKPGQSPTILIYSASNRYTGVPDRFTGSGSGTDFTLTISNMKSEDLADYFCQQYYIYPFTFAAGTKLELK
notes: as for B1
On to B2, for which the MFI in assay [1] came out at 101; in assay [3], 51. Also, the OD450 nm in assay [2] was found to be 0.0638; in assay [4], 0.365.

B3: 37C4F7 (antibody, V domains shown)
VH: EFQLQQSGPEVVKPGASVKISCKASGYSFTDYNMNWMKQSKGKSLEWIGVINPNYGTTTYNQNFKGKATLTVDQSSSTAYMQLNSLTSEDSAVYYCARDMYYVYAYYTMDYWGQGTSVTVSS
VL: DVVMTQTPLSLPVSLGDQASISCRSSQSLVHSNGHTYLHWYLQRPGQSPTLLIYKVSNRFSGVPDRFSGSGSGTDFTLKISRVEAEDLGVYFCSQGTHVPWTFGGGTKLEIK
notes: as for B1
Take B3: the MFI in assay [1] is 76.6; in assay [3], 45.4. The OD450 nm was determined as 0.0623 in assay [2] and 0.162 in assay [4].

B4: 38H2E3 (antibody, V domains shown)
VH: EFQLQQSGPEVVKPGASVKISCKASGYSFTDYNMNWMKQSKGKSLEWIGVISPDYGTTTYNQNFKDKATLTVDQSSSTAYMQLNSLTSEDSAVYYCAKDMYYVYAYYTMDYWGHGTSVTVSS
VL: DVVMTQTPLSLPVSLGDQASISCRSSQSLVHSNGHTYLHWYLQRPGQSPTLLIYKVSNRFSGVPDRVSGSGSGTDFTLKISRVEAEDLGVYFCSQGTHVPRTFGGGTKLEIK
notes: as for B1
With B4, the MFI is 78.7 in assay [1] and 45.4 in assay [3]. The OD450 nm in assay [2] was 0.0744; in assay [4] it was 0.194.

B5: 32C8F10 (antibody, V domains shown)
VH: EVQLQQSGAELVRPGASVKLSCTASGFNIKDEYIHWVKQRPEQGLEWIGWIDPANGHTEYASRFQAKATITADTSSNTAYLQLSSLTSEDTAVYYCTTGDYDGFAYWGQGTLVTVST
VL: QIVLTQSPAIMSASPGEKVTISCSARSSVSYMYWYQQKPGSSPKPWIYRTSNLASGVPARFSGSGSGTSYSLTISSMEAEDAATYYCQHYHTYPYTFGGGTKLEIK
notes: as for B1
B5: the figures for the MFI in assay [1] and in assay [3] were 218 and 86.2, respectively. For the same molecule, the results for the OD450 nm in assay [2] and in assay [4] were 0.0685 and 0.551, respectively.

B6: 31G10C5 (antibody, V domains shown)
VH: EVQLQQSGAELVRPGASVKLSCTASGFNIKDDYIHWVKQRPEQGLEWIGWIDPANGHIEYASNFQAKATITADTSSNTAYLQLSSLTSEDTAVYYCTTGDYDGFTYWGQGTLVTVST
VL: QIVLTQSPAIMSASPGEKVTISCSARSSVSYMYWYQQKPGSSPKPWIYRTSNLASGVPARFSGSGSGTSYSLTISSMEAEDAATYYCQHYHTYPYTFGGGTKLEIK
notes: as for B1
As to B6, the MFI in assay [1] came to 225; in assay [3], 85.5. In addition, the figures for the OD450 nm in assay [2] and in assay [4] were 0.0915 and 0.526, respectively.

B7: 31C11G2 (antibody, V domains shown)
VH: EVQLQQSGAELVRPGASVKLSCTASGFNIKDEYIHWVKQRPEQGLEWIGWIDPANGHTEYASRFQAKATITADTSSNTAYLQLSSLTSEDTAVYYCTTGDYDGFVYWGQGTLVTVST
VL: QIVLTQSPAIMSASPGEKVTIFCSARSSVSYMYWYQQKPGSSPKPWIYRTSNLASGVPARFSGSGSGTSYSLTISSMEAEDAATYYCQHYHTYPYTFGGGTKLEIK
notes: as for B1
In the case of B7, the MFI in assay [1] came to 248; in assay [3], 87.3. The figures for the OD450 nm in assay [2] and in assay [4] were 0.0939 and 0.817, respectively.
